Consider 18 molecules from patent publication US20170342126A1 (MAYO FOUNDATION FOR MEDICAL EDUCATION AND RESEARCH, published 2017).

Like-named read-outs stand apart in the source and are kept apart here. Bounds are passed on as bounds.

One may read the IC50 as the concentration at which inhibition is half-maximal. Lower therefore signals greater potency in that assay.

Test [1] has as its target HLA-DR DRB1*1302 (human). Nature of the test: radioligand inhibition, purified HLA-DR.
Test [2] addresses HLA-DR DRB1*0701 (human). Nature of the test: radioligand inhibition, purified HLA-DR.
Test [3] deals with HLA-DR DRB5*0101 (human). As to the kind of experiment: radioligand inhibition, purified HLA-DR.
Test [4] deals with HLA-DR DRB1*0901 (human). As to the kind of experiment: radioligand inhibition, purified HLA-DR.
Test [5] has as its target purified HLA-DR molecule DRB5*0101 (human). As to the kind of experiment: radioligand inhibition, purified HLA-DR.
The target in test [6] is purified HLA-DR molecule DRB1*1302 (human). As to the kind of experiment: radioligand inhibition, purified HLA-DR.
In test [7] the target is HLA-DR DRB1*1501 (human). As to the kind of experiment: radioligand inhibition, purified HLA-DR.
Test [8] deals with purified HLA-DR molecule DRB1*0901 (human). Nature of the test: radioligand inhibition, purified HLA-DR.
For test [9], the target named is T1, HLA-DR DRB4*0101 (human).
T1 chain 1: not shown
T1 chain 2: not shown
As to the kind of experiment: radioligand inhibition, purified HLA-DR. The following applies: remark: other sources report otherwise.

The target in test [10] is T2, HLA-DR DRB1*0405 (human).
T2 chain 1: not shown
T2 chain 2: not shown
Nature of the test: radioligand competition, purified HLA-DR. Conditions: remark: other sources report otherwise. A general note: Loss of bound radioactivity is the signal in a displacement assay; it reports binding, not function.

Test [11] addresses T3, HLA-DR DRB1*0401 (human).
T3 chain 1: not shown
T3 chain 2: not shown
Nature of the test: radioligand competition, purified HLA-DR. The following applies: remark: other sources report otherwise.

Test [12] deals with T4, HLA-DR DRB1*0101 (human).
T4 chain 1: not shown
T4 chain 2: not shown
Nature of the test: radioligand competition, purified HLA-DR. Conditions: remark: other sources report otherwise.

Test [13] deals with at least four different HLA-DR variants (of 15 different purified HLA-DR molecules). Nature of the test: radioligand inhibition, purified HLA-DR.
The target in test [14] is T5, HLA-DR DRB1*0802 (human).
T5 chain 1: not shown
T5 chain 2: not shown
As to the kind of experiment: radioligand inhibition, purified HLA-DR. The following applies: remark: other sources report otherwise.

Test [15] deals with T3, HLA-DR DRB1*0401 (human). As to the kind of experiment: radioligand inhibition, purified HLA-DR. The following applies: remark: other sources report otherwise.
In test [16] the target is T6, HLA-DR DRB1*0404 (human).
T6 chain 1: not shown
T6 chain 2: not shown
As to the kind of experiment: radioligand competition, purified HLA-DR. The following applies: remark: other sources report otherwise.

Test [17] addresses T7, HLA-DR DRB1*1302 (human).
T7 chain 1: not shown
T7 chain 2: not shown
As to the kind of experiment: radioligand inhibition, purified HLA-DR. The following applies: remark: other sources report otherwise.

Consider Peptide 9019.0005, CEA.122, for which the results for the IC50 in test [1] and in test [2] were 9960 nM and 6340 nM, respectively. Peptide 9019.0126, CEA.354: the figures for the concentration for half-maximal inhibition (IC50) in test [1] and in test [3] were 1920 nM and 2280 nM, respectively.

With Peptide 9019.0118, CEA.176, in test [4], the IC50 came to 1910 nM. For Peptide 9019.0126 (CEA.354), the IC50 was 2280 nM in test [5] and 1920 nM in [6]. Peptide 9019.0009, Cyclin D1.129 yielded an IC50 in test [1] of 3490 nM. As to Peptide 9019.0115, CEA.126, the IC50 in test [1] was 394 nM; in test [7], 376 nM.

In turn, Peptide 9019.0118 (CEA.176) came in with a concentration for half-maximal inhibition (IC50) in test [8] of 1910 nM. In test [2], GTDMKLRLPASPETH [Peptide 9019.0027, Her2/neu.28] displayed a 50% inhibitory concentration (IC50) of 6810 nM. Consider GYVIGTQQATPGPAY [9019.0110], for which the IC50 in [9] was 6.3 nM. For the molecule KLCIYTDNSIRPEEL [Peptide 9019.0159], the IC50 in [10] turned out to be 3170 nM; in test [11], 95 nM. TEILKGGVLIQRNPQ [Peptide 9019.0039] registered a concentration for half-maximal inhibition (IC50) in test [12] of 71 nM. On to HNQVRQVPLQRLRIV [Peptide 9019.0034, Her2/neu.88], for which the IC50 in test [13] is under 1000 nM; in [14], 95 nM.

In test [13], AQTFVALCATDVKFI [Peptide 9019.0168, Cyclin D1.182] returned a concentration for half-maximal inhibition (IC50) of under 1000 nM. Consider CYGLGMEHLREVRAV [Peptide 9019.0044], for which the 50% inhibitory concentration (IC50) in [12] turned out to be 139 nM. Regarding KELAVFREKVTEQHR [9019.0186], the half-maximal inhibitory concentration (IC50) in test [15] turned out to be 21 nM. Consider VCGIQNSVSANRSDP [Peptide 9019.0135], for which the figures for the IC50 in test [10] and in test [16] were 1850 nM and 26 nM, respectively. In turn, TTPVTGASPGGLREL [Peptide 9019.0037, Her2/neu.126] showed an IC50 in test [17] of 605 nM.

On to SDSVILNVLYGPDAP [Peptide 9019.0119], for which, in test [10], the IC50 worked out at 1450 nM.
